Measurements from patent US6335019B1, “Methods for treating sensitivity to protein allergen using peptides which include a T cell epitope recognized by a T cell receptor specific for the protein allergen” (Immulogic Pharmaceutical Corp., priority 1989, dated 2002).

What was measured:
[1] = system: T cells from patients allergic to ragweed; assay: T cell proliferation of ragweed allergic patient T cells to ragweed proteins and recombinant lysates (tritiated thymidine); assay type: cell-based, human
Description: T cells from patients allergic to ragweed, previously stimulated with a mixed ragweed pollen extract, can recognize and proliferate in response to pollen extract, ragweed skin test reagent (RWST), affinity purified Amb a I protein and crude bacterial lysates containing recombinant Amb a I gene products IA, IB and IC (Table 4). […] The use of crude bacterial lysates as antigens precludes a firm conclusion form the negative responses, since the relative levels of recombinant proteins in lysate have not been determined.
Peripheral blood mononuclear cells (PBMC) were purified from 60 ml of heparinized blood from ragweed-allergic patients. PBMC were subsequently treated as described below, although in individual cases, the length of time of cultivation with IL-2 and IL-4 and the specific ragweed proteins and peptides used for stimulation varied. As an example, ten ml of patient 222 PBMC at 10^6/ml were cultured at 37° C. for 7 days in the presence of 20 micrograms aqueous ragweed pollen extract/ml RPMI-1640 supplemented with 5% pooled human AB serum. Viable cells were purified by Ficoll-Hypaque centrifugation and cultured for three weeks at 5 units recombinant human IL-2/ml and 5 units recombinant human IL-4/ml. The resting T cells were then restimulated (secondary) with 20 micrograms aqueous ragweed pollen extract/ml at a density of 2×10^5 cells/ml in the presence of X-irradiated (3500 RADS) autologous PBMC (5×10^5/ml) for three days, purified by Ficoll-Hypaque centrifugation and grown in 5 units IL-2/ml and 5 units IL-4/ml for two weeks. For assay, 2×10^4 resting secondary T cells were restimulated (tertiary) in the presence of 5×10^4 X-irradiated (3500 RADS) autologous PBMC or 2×10^4 autologous Epstein-Barr virus-transformed B cells (20,000 RADS) with various concentrations of allergen or their fragments in a volume of 200 microliters in 96-well round bottom assay plates for 3 days. Each well then received 1 microCurie tritiated (methyl) thymidine for 16 hours. The counts incorporated were collected onto glass fiber filters and processed for liquid scintillation counting. […] Antigens used: IPC aqueous pollen extract (pollen), Hollister-Stier ragweed skin test extract (RWST), ALK cat epithelium skin test extract (CST), affinity 4B5/B7 antibody purified (dialyzed) Amb a I (B7), and chromatographically purified Amb a I and (Amb a I). Medium only control is shown as a line with no symbol. Alternatively, PBMC were sometimes carried only into a secondary assay (as outlined above for a tertiary assay) with 20 micrograms aqueous pollen extract 7 days, followed by culture in 5 units IL-2/ml and 5 units IL-4/ml for 2-3 weeks. […] Secondary and tertiary assays of a panel of ragweed allergic patients were performed using synthetic peptides derived from the sequences of various ragweed pollen proteins. […] Another four peptides (RAE15.6, RAE3.D, RAE28.1, RAE26.15) which are also derived from the sequence of the same three cDNA's could stimulate 35 to 58% of the patients' T cells. One peptide (RAE4) which is derived from the cDNA of IPC Clone 5 could also stimulate 25% of the patients' T cells. […] By this method it is possible to identify novel therapeutic and diagnostics entities for use in the treatment and the diagnosis of ragweed allergy.

[2] = system: goat anti-Amb a I antibody; assay: Western blot of E. coli-expressed recombinant Amb a I / Amb a II with goat anti-Amb a I antibody (FIG. 19); assay type: binding
Method: Furthermore, full-length and truncated cDNAs encoding several members of the Amb a I multigene family, as well as Amb a II, were cloned in-frame into the expression vector pTrc99 (Amann et al. Gene, 69:301-315, (1988)) and transformed into the JM109 host. Expression of recombinant Amb a I and Amb a II protein was induced by 1 mM isopropyl-β-D-thiogalactopyranoside, cells were harvested, lysozyme treated, sonicated and insoluble inclusion bodies recovered by a low speed centrifugation. Recombinant Amb a I and Amb a II protein present in the recovered pellet was solubilized in buffer containing 8M urea, 50 mM Tris HC1 pH8.0, 50 mM NaCl, 1 mM EDTA, 1 mM dithiothreitol, 1 mM phenylmethylsulfonyl fluoride. After solubilization, the crude urea lysate was dialyzed at 4° C. against PBS. […] This antigenic cross-reactivity is consistent with the observed sequence homology of the cDNAs (see FIG. 16).
Isoelectric focusing was done on a Hoeffer gel apparatus with 15 μg of crude soluble pollen protein. The gel consisted of 7.5% acrylamide with 3.5% Pharmalytes pH 4.5-5.3 (Pharmacia) and 3.5% Ampholines pH 3.5-10 (LKB), run at 13W for 3.5 hours until a constant voltage was reached. The gel section was placed on a slab of 10% acrylamide SDS-PAGE and electrophoresed for 3.5 hours at 40 mA according to the protocol cited. The proteins were transferred overnight in phosphate buffer to 0.1 micron nitrocellulose (Schleicher and Schuell) at 0.2A. The blot was rinsed in blot solution (25 mM Tris-CHl pH 7.5, 0.171 M NaCl, 0.05% Tween-20; Sigma). The first antibody incubation was overnight at room temperature with a […] of goat anti-Amb a I IgC (obtained from Dr. David Marsh) in blot solution. The excess first antibody was removed with three 15 minute rinses with blot solution. The second antibody was a 1:2,500 dilution of biotinylated swine anti-goat IgG (Boehringer-Manneheim) in blot solution for two hours. The blot was then rinsed with blot solution three times for 15 minutes and incubated for 1 hr in blot solution with 2 μCi I^125 streptavidin (Amersham). The blots were rinsed with blot solution until the waste wash was down to background. The blot was then exposed to film at —80° C. overnight. In the case of one-dimensional SDS-PAGE Western blots (FIGS. 17, 19 and 20) the isoelectric focusing step was omitted. When human sera was used to probe the Western blots (FIGS. 17 and 20), 10% human plasma in 1% milk in blot solution was incubated overnight with the blot prior to using as second antibody biotinylated goat anti-human IgE.

[3] = system: rabbit antisera directed against an Amb a II sequence (amino acid 326-338; RAE 50. K); assay: Western blot of recombinant proteins with monospecific anti-peptide antisera against RAE 50. K; assay type: binding; settings: Western blots, data not shown
Description: Proteins or peptides encoded by the cDNA of the present invention can be used, for example, as “purified” allergens. Such purified allergens are useful in the standardization of allergen extracts which are key reagents for the diagnosis and treatment of ragweed allergy. Furthermore, by using peptides based on the sequences listed in FIGS. 2 through 16, anti-peptide antisera or monoclonal antibodies can be made using standard methods. Such reagents can be specifically directed against individual isoforms of Amb a I or Amb a II (i.e., directed against divergent regions/epitopes of the molecule) or can be specific for all forms Amb a I or Amb a II (i.e, directed against common sequences/epitopes). These sera or monoclonal antibodies, directed against Amb a I or Amb a II, can be used to standardize allergen extracts. One such monospecific anti-peptide antisera has already been successfully produced.

B1: Amb a IB: E. coli expressed recombinant Amb a IB, used as crude bacterial lysate (protein)
chain: LYFTLALVTLLQPVRSAEDVEEFLPSANETRRSLKACEAHNIIDKCWRCKADWANNRQALADCAQGFAKGTYGGKHGDVYTVTSDKDDDVANPKEGTLRFAAAQNRPLWIIFKRNMVIHLNQELVVNSDKTIDGRGVKVNIVNAGLTLMNVKNIIIHNINIHDIKVCPGGMIKSNDGPPILRQQSDGDAINVAGSSQIWIDHCSLSKASDGLLDITLGSSHVTVSNCKFTQHQFVLLLGADDTHYQDKGMLATVAFNMFTDHVDQRMPRCRFGFFQVVNNNYDRWGTYAIGGSSAPTILSQGNRFFAPDDIIKKNVLARTGTGNAESMSWNWRTDRDLLENGAIFLPSGSDPVLTPEQKAGMIPAEPGEAVLRLTSSAGVLSCHQGAPC
- T cell recognition and proliferation (in words) ([1]; T cells previously stimulated with mixed ragweed pollen extract, summary of Table 4): proliferate
- Stimulatory response of human T cells (proliferation compared to medium control) ([1]; patient 151 2° (secondary assay)): + (2-4 fold)
- Stimulatory response of human T cells (proliferation compared to medium control) ([1]; patient 274 2° (secondary assay)): + (2-4 fold)
- Stimulatory response of human T cells (proliferation compared to medium control) ([1]; patient 295 2° (secondary assay)): + (2-4 fold)
- Stimulatory response of human T cells (proliferation compared to medium control) ([1]; patient 296 2° (secondary assay)): +++ (>10 fold)
- Stimulatory response of human T cells (proliferation compared to medium control) ([1]; patient 314 2° (secondary assay)): +++ (>10 fold)
- Stimulatory response of human T cells (proliferation compared to medium control) ([1]; patient 316 2° (secondary assay)): ++ (4-10 fold)
- Stimulatory response of human T cells (proliferation compared to medium control) ([1]; patient 319 2° (secondary assay)): (+) (2 fold)
- Stimulatory response of human T cells (proliferation compared to medium control) ([1]; patient 320 2° (secondary assay)): + (2-4 fold)
- Stimulatory response of human T cells (proliferation compared to medium control) ([1]; patient 321 2° (secondary assay)): ++ (4-10 fold)
- Binding by goat anti-Amb a I antibody (in words) [2]: binds specifically
- Binding by rabbit anti-RAE 50. K antisera (in words) [3]: not
